How the values were obtained:
[1] = heterologous competitive indirect ELISA (coating antigen imidaclothiz-OVA); type: binding
Source text: In the early preparation stage of parental ascitic monoclonal antibodies, the assay sensitivity difference was compared between the homologous competitive indirect ELISA (coating antigen was clothianidin-OVA) and the heterologous competitive indirect ELISA (coating antigen was imidaclothiz-OVA). […] Therefore, in the present disclosure, the heterologous competitive indirect ELISA was used to evaluate the sensitivity and specificity of the intact recombinant antibody against clothianidin. A 96-well plate was coated with imidaclothiz-OVA as the heterologous competitive antigen; subsequently, ELISA was performed using a rabbit anti-mouse IgG-HRP as a detection antibody, tetramethylbenzidine (TMB) as a reaction substrate, and clothianidin and other neonicotinoid pesticide standards as analytes.

[2] = antibody binding kinetics by surface plasmon resonance (SPR); conditions: CM7 chip, antibody coupled at pH 5.0, clothianidin 0.78-50 nM
Protocol: The CM7 chip was used in this invention, and the optimal pH for both antibodies was 5.0. The final signal values of the antibodies coupled on the chip were 38663 RU and 39854 RU, respectively. Kinetic experiments were performed to determine the affinity of both the parental ascitic monoclonal antibody and the intact recombinant antibody to clothianidin at a range of analyte concentrations ([…], and 0.78 nM).

B1: intact recombinant antibody against clothianidin: Recombinant mouse IgG1/kappa antibody, VH SEQ ID NO: 2, VL SEQ ID NO: 4, expressed in HEK293F cells (antibody, listed as Mus musculus, V domains shown)
VH: EVQLQQSGPELVKPGASVKMSCKASGYTFTNYVMHWVKQKPGQGLEWIGFFYPYIDYTKYNEMFKGKATLTSDTSSSTAYMELSGLTSEDSAVYFCARSQFFYRYDYFDYWGQGTALTVSS
VL: DVLMTQTPLSLPVSLGDQASISCRSSQNIVHSNGNTYLEWYLQKPGQSPKVLIYKVSNRFSGVPDRFSGSGSGTDFTLKINRVEAEDLGIYYCFQGSHVPFTFGSGTKLEIK
Sensitivity (IC50) [1]: 4.62 ng/mL
detection range for ELISA (IC20-IC80) [1]: 0.92 to 23.04 ng/mL
Kd [2]: 3.24 nM

— US11884743B2, “Preparation and application of an intact recombinant antibody specific to clothianidin based on the identified variable region sequence” (Zhejiang University, priority 2020, dated 2024)
